molecular target: T1, human leukemia inhibitory factor (LIF), soluble (human, UniProt P15018 23-202); test: yeast surface display, flow cytometry; score from summed fluorescence at 10 pM and 100 pM human LIF, normalized to wild-type and to expression
T1 construct: also called human LIF; soluble human LIF
T1 sequence (P15018 23-202 limits assumed): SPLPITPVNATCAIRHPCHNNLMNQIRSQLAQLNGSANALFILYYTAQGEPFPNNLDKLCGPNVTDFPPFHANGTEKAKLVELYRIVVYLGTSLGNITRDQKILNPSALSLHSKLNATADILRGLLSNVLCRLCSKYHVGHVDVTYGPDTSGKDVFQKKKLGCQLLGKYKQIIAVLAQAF

Row | Binder | Score (normalized binding score)
1 | PAID (receptor, 4 mutations, all marked) yeast-displayed receptor fragment: QKKGAPHDLKCVTNNLQVWNCSWKAPSGTGRGTDYEVCIENRSRSCYQLEKTSIKIPALSHGDYEITINSLHDFGSSTSKFTLNEQNVSLIPDTPEILNLSADFSTSTLYLKWNDRGSVFPHRSNVIWEIKVLRKESMELVKLVTHNTTLNGKDTLHHWSWASDMPLECAIHFVEIRCYIDNLHFSGLEEWSDWSPVKNISWIPDSQTKVFPQDKVIPVGSDITFCCVSQEKVLSALIGHTNCPLIHLDGENVAIKIRNISASASSGTNVVFITEDDIFGTVIFAGYPPDTPQQLNCETHDLKEIICSWNPGRVTALVGPRATSYTLVESFSGKYVRLKRAEAPTNESYQLLFQMLPNQEIYNFTLNAHNPLGRSQSTILVNITEKVYPHTPTSFKVKDINSTAVKLSWHLPGNFAKINFLCEIEIKKSNSVQEQRNVTIKGVENSSYLVALDKLNPYTLYTFRIRCSTETFWKWSKWSNKKQHLTTEAS | 13.3
2 | PID (receptor) yeast-displayed receptor fragment: QKKGAPHDLKCVTNNLQVWNCSWKAPSGTGRGTDYEVCIENRSRSCYQLEKTSIKIPALSHGDYEITINSLHDFGSSTSKFTLNEQNVSLIPDTPEILNLSADFSTSTLYLKWNDRGSVFPHRSNVIWEIKVLRKESMELVKLVTHNTTLNGKDTLHHWSWASDMPLECAIHFVEIRCYIDNLHFSGLEEWSDWSPVKNISWIPDSQTKVFPQDKVIPVGSDITFCCVSQEKVLSALIGHTNCPLIHLDGENVAIKIRNVSVSASSGTNVVFITEDDIFGTVIFAGYPPDTPQQLNCETHDLKEIICSWNPGRVTALVGPRATSYTLVESFSGKYVRLKRAEAPTNESYQLLFQMLPNQEIYNFTLNAHNPLGRSQSTILVNITEKVYPHTPTSFKVKDINSTAVKLSWHLPGNFAKINFLCEIEIKKSNSVQEQRNVTIKGVENSSYLVALDKLNPYTLYTFRIRCSTETFWKWSKWSNKKQHLTTEAS | 12.2

Further lines, results first:

Row | Score (normalized binding score) | Binder
3 | 13.2 | VPSID (receptor, 5 mutations, all marked) yeast-displayed receptor fragment: QKKGAPHDLKCVTNNLQVWNCSWKAPSGTGRGTDYEVCIENRSRSCYQLEKTSIKIPALSHGDYEITINSLHDFGSSTSKFTLNEQNVSLIPDTPEILNLSADFSTSTLYLKWNDRGSVFPHRSNVIWEIKVLRKESMELVKLVTHNTTLNGKDTLHHWSWASDMPLECAIHFVEIRCYIDNLHFSGLEEWSDWSPVKNISWIPDSQTKVFPQDKVVPVGSDITFCCVSQEKVLSALIGHTSCPLIHLDGENVAIKIRNISVSASSGTNVVFITEDDIFGTVIFAGYPPDTPQQLNCETHDLKEIICSWNPGRVTALVGPRATSYTLVESFSGKYVRLKRAEAPTNESYQLLFQMLPNQEIYNFTLNAHNPLGRSQSTILVNITEKVYPHTPTSFKVKDINSTAVKLSWHLPGNFAKINFLCEIEIKKSNSVQEQRNVTIKGVENSSYLVALDKLNPYTLYTFRIRCSTETFWKWSKWSNKKQHLTTEAS
4 | 16.9 | PRVAID (receptor) yeast-displayed receptor fragment: QKKGAPHDLKCVTNNLQVWNCSWKAPSGTGRGTDYEVCIENRSRSCYQLEKTSIKIPALSHGDYEITINSLHDFGSSTSKFTLNEQNVSLIPDTPEILNLSADFSTSTLYLKWNDRGSVFPHRSNVIWEIKVLRKESMELVKLVTHNTTLNGKDTLHHWSWASDMPLECAIHFVEIRCYIDNLHFSGLEEWSDWSPVKNISWIPDSQTKVFPQDKVIPVGSDITFCCVSQEKVLSALIGRTNCPLIHLDGENVAIKVRNISASASSGTNVVFITEDDIFGTVIFAGYPPDTPQQLNCETHDLKEIICSWNPGRVTALVGPRATSYTLVESFSGKYVRLKRAEAPTNESYQLLFQMLPNQEIYNFTLNAHNPLGRSQSTILVNITEKVYPHTPTSFKVKDINSTAVKLSWHLPGNFAKINFLCEIEIKKSNSVQEQRNVTIKGVENSSYLVALDKLNPYTLYTFRIRCSTETFWKWSKWSNKKQHLTTEAS
5 | 15.6 | PVAID (receptor, 5 mutations, all marked) yeast-displayed receptor fragment: QKKGAPHDLKCVTNNLQVWNCSWKAPSGTGRGTDYEVCIENRSRSCYQLEKTSIKIPALSHGDYEITINSLHDFGSSTSKFTLNEQNVSLIPDTPEILNLSADFSTSTLYLKWNDRGSVFPHRSNVIWEIKVLRKESMELVKLVTHNTTLNGKDTLHHWSWASDMPLECAIHFVEIRCYIDNLHFSGLEEWSDWSPVKNISWIPDSQTKVFPQDKVIPVGSDITFCCVSQEKVLSALIGHTNCPLIHLDGENVAIKVRNISASASSGTNVVFITEDDIFGTVIFAGYPPDTPQQLNCETHDLKEIICSWNPGRVTALVGPRATSYTLVESFSGKYVRLKRAEAPTNESYQLLFQMLPNQEIYNFTLNAHNPLGRSQSTILVNITEKVYPHTPTSFKVKDINSTAVKLSWHLPGNFAKINFLCEIEIKKSNSVQEQRNVTIKGVENSSYLVALDKLNPYTLYTFRIRCSTETFWKWSKWSNKKQHLTTEAS
6 | 13.4 | PSVID (receptor, 5 mutations, all marked) yeast-displayed receptor fragment: QKKGAPHDLKCVTNNLQVWNCSWKAPSGTGRGTDYEVCIENRSRSCYQLEKTSIKIPALSHGDYEITINSLHDFGSSTSKFTLNEQNVSLIPDTPEILNLSADFSTSTLYLKWNDRGSVFPHRSNVIWEIKVLRKESMELVKLVTHNTTLNGKDTLHHWSWASDMPLECAIHFVEIRCYIDNLHFSGLEEWSDWSPVKNISWIPDSQTKVFPQDKVIPVGSDITFCCVSQEKVLSALIGHTSCPLIHLDGENVAIKIRNVSVSASSGTNVVFITEDDIFGTVIFAGYPPDTPQQLNCETHDLKEIICSWNPGRVTALVGPRATSYTLVESFSGKYVRLKRAEAPTNESYQLLFQMLPNQEIYNFTLNAHNPLGRSQSTILVNITEKVYPHTPTSFKVKDINSTAVKLSWHLPGNFAKINFLCEIEIKKSNSVQEQRNVTIKGVENSSYLVALDKLNPYTLYTFRIRCSTETFWKWSKWSNKKQHLTTEAS
7 | 14.4 | VPDAID (receptor, 6 mutations, all marked) yeast-displayed receptor fragment: QKKGAPHDLKCVTNNLQVWNCSWKAPSGTGRGTDYEVCIENRSRSCYQLEKTSIKIPALSHGDYEITINSLHDFGSSTSKFTLNEQNVSLIPDTPEILNLSADFSTSTLYLKWNDRGSVFPHRSNVIWEIKVLRKESMELVKLVTHNTTLNGKDTLHHWSWASDMPLECAIHFVEIRCYIDNLHFSGLEEWSDWSPVKNISWIPDSQTKVFPQDKVVPVGSDITFCCVSQEKVLSALIGHTDCPLIHLDGENVAIKIRNISASASSGTNVVFITEDDIFGTVIFAGYPPDTPQQLNCETHDLKEIICSWNPGRVTALVGPRATSYTLVESFSGKYVRLKRAEAPTNESYQLLFQMLPNQEIYNFTLNAHNPLGRSQSTILVNITEKVYPHTPTSFKVKDINSTAVKLSWHLPGNFAKINFLCEIEIKKSNSVQEQRNVTIKGVENSSYLVALDKLNPYTLYTFRIRCSTETFWKWSKWSNKKQHLTTEAS

molecular target: T1, human leukemia inhibitory factor (LIF), …; test: yeast surface display, flow cytometry; Score column of the table of sorted gp130 CBM variants (the filing gives 100 pM and 1 nM human LIF for the gp130 binding scores)

Row | Score (binding score) | Binder
8 | 1.03 | wild-type human gp130 CBM domain displayed on the surface of yeast (receptor, also called gp130 wild-type (WT); wild-type gp130) LPPEKPKNLSCIVNEGKKMRCEWDRGRETHLETNFTLKSEWATHKFADCKAKRDTPTSCTVDYSTVYFVNIEVWVEAENALGKVTSDHINFDPVYKVKPNPPHNLSVINSEELSSILKLTWTNPSIKSVIILKYNIQYRTKDASTWSQIPPEDTASTRSSFTVQDLKPFTEYVFRIRCMKEDGKGYWSDWSEEASGITYED
9 | 21.9 | ELDSM (receptor, 5 mutations, all marked) yeast-displayed receptor fragment: LPPEKPKNLSCIVNEGKKMRCEWDRGRETHLETNFTLKSEWATHELADCKAKRDTPTSCTVDYSTVYFVNIEVWVEAENALGKVTSDHINFDPVDKVKPSPPHNLSVINSEELSSILKLTWTNPSIKSVMILKYNIQYRTKDASTWSQIPPEDTASTRSSFTVQDLKPFTEYVFRIRCMKEDGKGYWSDWSEEASGITYED
10 | 23 | EDE (receptor, 3 mutations, all marked) yeast-displayed receptor fragment: LPPEKPKNLSCIVNEGKKMRCEWDRGRETHLETNFTLKSEWATHEFADCKAKRDTPTSCTVDYSTVYFVNIEVWVEAENALGKVTSDHINFDPVDKVKPNPPHNLSVINSEELSSILKLTWTNPSIKSVIILKYNIQYRTKDASTWSQIPPEDTASTRSSFTVQDLKPFTEYVFRIRCMKEDGEGYWSDWSEEASGITYED
